The record followed here is article PMC10711565.

Holding throughout (assay): fluorescence anisotropy
Data set [1] concerns the target T1, PCBP2 (UniProt Q15366 1-365).
Data set [2] deals with T1, PCBP2. The source holds these as a separate data set.
Data set [3] concerns the target T1, PCBP2. The source holds these as a separate data set.

Like-named read-outs stand apart in the source and are kept apart here.

T1 sequence (Q15366 whole entry): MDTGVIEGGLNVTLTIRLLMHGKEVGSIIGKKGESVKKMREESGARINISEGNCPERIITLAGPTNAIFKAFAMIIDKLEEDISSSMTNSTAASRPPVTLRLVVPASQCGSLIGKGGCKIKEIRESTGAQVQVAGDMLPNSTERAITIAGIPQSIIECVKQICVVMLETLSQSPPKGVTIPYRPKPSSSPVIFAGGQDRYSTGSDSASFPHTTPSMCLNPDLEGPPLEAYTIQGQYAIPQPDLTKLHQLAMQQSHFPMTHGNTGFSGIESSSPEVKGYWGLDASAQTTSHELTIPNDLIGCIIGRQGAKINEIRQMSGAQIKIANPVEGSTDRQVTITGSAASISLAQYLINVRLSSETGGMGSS

GCCAGCCCCCUGAUGGGGGCGACACUCCACCAUGAAUCACUCCCC (structured_RNA) [HCV45] returned a Kd in data set [1] of 0.667 ± 0.034 µM.

B1: HCV45:miR-122 complex (structured_RNA)
RNA 1: GCCAGCCCCCUGAUGGGGGCGACACUCCACCAUGAAUCACUCCCC
RNA 2: UGGAGUGUGACAAUGGUGUUUG
In turn, B1 came in with a Kd in data set [2] of 9.88 ± 1.6 µM. As to UGGAGUGUGACAAUGGUGUUUG (ssRNA) [miR-122], binding in data set [1] was put at a Kd of 5.33 ± 0.47 µM. For GCCAGCCCCCUGAUGGGGGCGACACUCCACCAUGAAUCACUCCCCUG (structured_RNA) [HCV47], the binding result in data set [3] was “binds”.
